Data on ten molecules can be found in patent US20230235012A1 (ALPINE IMMUNE SCIENCES, published 2023).

Assay [1] has as its target human PD-L1, full-length, expressed on transfected cells (human) (UniProt Q9NZQ7). In words: flow cytometry, transfected cells.
Assay [2] deals with human CD28, full-length, expressed on transfected cells (human) (UniProt P10747). In words: flow cytometry, transfected cells.
The target in assay [3] is human PD-L1 (human) (UniProt Q9NZQ7). As to the kind of experiment: flow cytometry, PD-L1-transfected cells.
Chain of human PD-L1 (human) (Q9NZQ7 19-290): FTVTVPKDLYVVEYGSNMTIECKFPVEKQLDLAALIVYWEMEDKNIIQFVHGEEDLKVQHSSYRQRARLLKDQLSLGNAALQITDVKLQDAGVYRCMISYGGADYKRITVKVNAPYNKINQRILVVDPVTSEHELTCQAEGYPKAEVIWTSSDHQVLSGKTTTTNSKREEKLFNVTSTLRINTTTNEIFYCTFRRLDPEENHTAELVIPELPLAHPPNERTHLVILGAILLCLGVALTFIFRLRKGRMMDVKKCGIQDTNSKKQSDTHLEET
In assay [4] the target is human CD28, full length, expressed on cells (human, UniProt P10747 19-220). In words: flow cytometry of human T cells from blood of treated GVHD mice.
The target in assay [5] is T1, human ICOS, full length, expressed on cells (human, UniProt Q9Y6W8 21-199).
T1 sequence: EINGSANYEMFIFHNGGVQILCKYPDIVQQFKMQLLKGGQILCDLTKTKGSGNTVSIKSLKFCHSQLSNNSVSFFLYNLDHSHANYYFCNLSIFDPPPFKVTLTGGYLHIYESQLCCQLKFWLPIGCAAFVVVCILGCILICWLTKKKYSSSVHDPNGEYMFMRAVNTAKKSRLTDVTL
As to the kind of experiment: flow cytometry on CHO cells transduced for surface expression of full-length human ICOS; Fc protein 32 pM to 100 nM, PE anti-human IgG, MFI.

In assay [6] the target is T2, human CTLA-4 (human, UniProt P16410 36-223).
T2 construct: whole, on cells
T2 sequence (P16410 36-223): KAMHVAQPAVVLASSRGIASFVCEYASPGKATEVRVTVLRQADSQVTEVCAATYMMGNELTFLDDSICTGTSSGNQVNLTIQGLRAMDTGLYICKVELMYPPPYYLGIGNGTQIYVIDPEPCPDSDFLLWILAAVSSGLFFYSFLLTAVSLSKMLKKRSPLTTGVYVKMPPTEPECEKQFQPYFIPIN
In words: flow cytometry, transfected cells.

Assay [7] addresses T2, human CTLA-4. In words: flow cytometry, transfected cells; protein from 293.

Chain of human PD-L1, full-length, expressed on transfected cells (human) (Q9NZQ7 19-290): as the sequence (Q9NZQ7 19-290) above

For the molecule “stacked Fc fusion: Domain 1 CD80 WT / Domain 2 ICOSL WT / Fc”, in assay [1], the MFI is 2660 MFI. “stacked Fc fusion: Domain 1 ICOSL WT / Domain 2 NKp30 WT / Fc” registered an MFI in assay [2] of 7920 MFI. On to “stack ICOSL WT IgV / CD80 WT IgV / Fc (Fc fusion)”, for which the MFI in assay [3] was 3000 MFI. Regarding “stacked Fc fusion: Domain 1 NKp30 WT / Domain 2 ICOSL WT / Fc”, the MFI in assay [2] is 6340 MFI. “stack CD80 WT IgV / ICOSL WT IgV / Fc (Fc fusion)” gave an MFI in assay [3] of 1230 MFI.

B1: variant ICOSL IgV-Fc (N52H/N57Y/Q100R) (Fc fusion)
chain: DTQEKEVRAMVGSDVELSCACPEGSRFDLNDVYVYWQTSESKTVVTYHIPQHSSLEYVDSRYRNRALMSPAGMLRGDFSLRLFNVTPQDEQKFHCLVLSRSLGFQEVLSVEVTLHVAANFSVEPKSSDKTHTCPPCPAPEAEGAPSVFLFPPKPKDTLMISRTPEVTCVVVDVSHEDPEVKFNWYVDGVEVHNAKTKPREEQYNSTYRVVSVLTVLHQDWLNGKEYKCKVSNKALPAPIEKTISKAKGQPREPQVYTLPPSRDELTKNQVSLTCLVKGFYPSDIAVEWESNGQPENNYKTTPPVLDSDGSFFLYSKLTVDKSRWQQGNVFSCSVMHEALHNHYTQKSLSLSPG
In the case of B1, in assay [4], the binding result was “binds”.

B2: ICOSL (N52D) (Fc fusion, not shown: a dimerising Fc or GST; small tags and cut ends)
chain: DTQEKEVRAMVGSDVELSCACPEGSRFDLNDVYVYWQTSESKTVVTYHIPQDSSLENVDSRYRNRALMSPAGMLRGDFSLRLFNVTPQDEQKFHCLVLSQSLGFQEVLSVEVTLHVAANFSV
notes: also called ICOSL H79; parental ICOSL only protein
Take B2: the “EC50 (read off the curve)” value in assay [5] was about 800 pM.

B3: ICOSL (N52H/N57Y/Q100R) (Fc fusion, not shown: a dimerising Fc or GST; small tags and cut ends)
chain: DTQEKEVRAMVGSDVELSCACPEGSRFDLNDVYVYWQTSESKTVVTYHIPQHSSLEYVDSRYRNRALMSPAGMLRGDFSLRLFNVTPQDEQKFHCLVLSRSLGFQEVLSVEVTLHVAANFSV
notes: also called ICOSL H238; parental ICOSL only protein
Take B3: the “EC50 (read off the curve)” value in assay [5] is about 500 pM.

B4: ICOSL (N52L/N57H/Q100R) (Fc fusion, not shown: a dimerising Fc or GST; small tags and cut ends)
chain: DTQEKEVRAMVGSDVELSCACPEGSRFDLNDVYVYWQTSESKTVVTYHIPQLSSLEHVDSRYRNRALMSPAGMLRGDFSLRLFNVTPQDEQKFHCLVLSRSLGFQEVLSVEVTLHVAANFSV
notes: also called ICOSL H3447; parental ICOSL only protein
Consider B4, for which the “EC50 (read off the curve)” value in assay [5] is about 400 pM.

B5: Wildtype ICOSL ECD (control of Tables 30C and 30D) (Fc fusion, not shown: a dimerising Fc or GST)
chain: DTQEKEVRAMVGSDVELSCACPEGSRFDLNDVYVYWQTSESKTVVTYHIPQNSSLENVDSRYRNRALMSPAGMLRGDFSLRLFNVTPQDEQKFHCLVLSQSLGFQEVLSVEVTLHVAANFSVPVVSAPHSPSQDELTFTCTSINGYPRPNVYWINKTDNSLLDQALQNDTVFLNMRGLYDVVSVLRIARTPSVNIGCCIENVLLQQNLTVGSQTGNDIGERDKITENPVSTGEKNAAT
For the molecule B5, the results for the MFI in assay [6] and in assay [7] were 7580 MFI and 12100 MFI, respectively.
